Article doi:10.1101/2023.07.25.550448 (bioRxiv, 2023)
Where “and” joins values, the source holds several entries; their conditions need not be identical. Equal entries are not always repeated. No end group written: not given here. *: point of attachment. Biotin = O=C1N[C@H]2[C@H](CS[C@H]2CCCCC(=O)*)N1

Key:
His6-p97 WT [1] = molecular target: T1, His6-p97 WT (human, UniProt P55072 1-806); test: pull-down
His6-p97 WT [2] = molecular target: T1, His6-p97 WT; test: SPR
His6-p97 WT [3] = molecular target: T1, His6-p97 WT; test: mass photometry

T1 sequence (P55072 whole entry): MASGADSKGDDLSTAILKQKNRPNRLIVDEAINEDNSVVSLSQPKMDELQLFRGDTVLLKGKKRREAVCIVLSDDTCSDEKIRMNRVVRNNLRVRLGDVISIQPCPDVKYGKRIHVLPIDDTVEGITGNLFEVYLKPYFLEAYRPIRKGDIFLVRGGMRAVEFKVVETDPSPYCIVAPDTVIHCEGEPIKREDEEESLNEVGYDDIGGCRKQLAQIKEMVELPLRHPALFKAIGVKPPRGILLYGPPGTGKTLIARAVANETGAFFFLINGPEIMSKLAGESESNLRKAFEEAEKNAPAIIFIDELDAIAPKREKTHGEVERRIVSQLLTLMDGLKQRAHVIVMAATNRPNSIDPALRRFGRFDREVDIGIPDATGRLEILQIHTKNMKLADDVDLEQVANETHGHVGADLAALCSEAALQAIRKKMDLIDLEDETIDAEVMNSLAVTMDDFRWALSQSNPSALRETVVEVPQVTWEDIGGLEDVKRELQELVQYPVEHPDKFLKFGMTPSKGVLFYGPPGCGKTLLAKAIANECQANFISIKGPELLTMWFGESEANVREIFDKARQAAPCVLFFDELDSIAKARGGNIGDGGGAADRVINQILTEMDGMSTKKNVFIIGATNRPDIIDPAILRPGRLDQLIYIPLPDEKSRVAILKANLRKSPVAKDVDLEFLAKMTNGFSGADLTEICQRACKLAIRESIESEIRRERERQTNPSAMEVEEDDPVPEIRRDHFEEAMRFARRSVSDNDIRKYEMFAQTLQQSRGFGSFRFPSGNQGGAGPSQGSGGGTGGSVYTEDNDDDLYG

Biotin-PTPDLEEKRAKLAEAAERRQKEAAS [VIM peptide (SVIP, aa14-39)]
binding result (His6-p97 WT [1]): binds

Biotin-NLTSEELRKRREAYFEKQQQK [VBM peptide (ATXN3, aa275-295)]
binding result (His6-p97 WT [1]): binds

B1: Strep-HA-VCF1 WT (natural protein)
chain: not shown
Kd (His6-p97 WT [2]): ~10 nM
stoichiometry N (His6-p97 WT [3]): 2 VCF1 molecules per p97 hexamer and 3 VCF1 molecules per p97 hexamer
